According to patent US20210283252A1 (POLPHARMA BIOLOGICS S A, published 2021):

Columns and labels:
α4β7 integrin [1] = target: T1, α4β7 integrin (UniProt P13612 34-970; P26010 20-723, limits assumed); test: MadCAM-1 competitive ELISA; coated α4β7 integrin, Fc-tagged MadCAM-1 as competitor; highest of 24 batches
Procedure: (§1) In still another alternative one can measure MadCAM-1 competitive binding by ELISA. The aim of this assay is to test the ability of natalizumab to inhibit interaction of α₄β₇ integrin with its cognate receptor—MadCAM-1 protein in a dose-dependent manner. Constant amount of the coated α₄β₇ integrin is incubated with serial dilutions of natalizumab in the presence of Fc-tagged MadCAM-1 receptor. Natalizumab and MadCAM-1 receptor now compete for binding to solid-phase associated α₄β₇ integrin. The higher the natalizumab concentration the more MadCAM-1 is inhibited from binding to α₄β₇ integrin. The lowest signal result is observed when no natalizumab is present. […] is subsequently detected with a POD-conjugated anti-human IgG antibody and a TMB-substrate reaction at the end of the assay. Data are analyzed with 4PL fitting model. Final result is expressed as a Relative Potency (REP) of tested sample in relation to reference standard. The method variability was determined at the level of 8% coefficient variation (CV) of intermediate precision within the qualification exercise. Additionally accuracy, linearity and specificity were tested.

α4β7 integrin [2] = target: T1, α4β7 integrin; test: MadCAM-1 competitive ELISA; coated α4β7 integrin, Fc-tagged MadCAM-1 as competitor, bound natalizumab detected; 24 batches, n=3
Procedure: as §1

HIS-tagged α4β1 integrin [3] = target: T2, HIS-tagged α4β1 integrin (UniProt P13612 34-977; P05556 21-728, limits assumed); test: VCAM-1 competitive ELISA; coated VCAM-1 as competitor, HIS-tagged α4β1 integrin in solution; lowest of 26 batches
T2 construct: Soluble, HIS-tagged
Procedure: (§2) Alternatively, one can also measure VCAM-1 competitive binding by ELISA. The aim of this assay is to test the ability of natalizumab to inhibit interaction of α₄β₁ integrin with its cognate receptor VCAM-1 protein in a dose-dependent manner. Constant amount of the coated VCAM-1 protein is incubated with serial dilutions of natalizumab in the presence of HIS-tagged α₄β₁ integrin. Solid-phase associated VCAM-1 and soluble natalizumab now compete for binding to α₄β₁, integrin. The higher the natalizumab concentration the more α4β1 integrin is inhibited from binding to VCAM-1. The highest signal result is observed when no natalizumab is present. Bound HIS-tagged α₄β₁ integrin is subsequently detected with a biotinylated anti-HIS-tag antibody, POD-conjugated Streptavidin and a TMB-substrate reaction at the end of the assay. Data are analyzed with 4PL fitting model. Final result is expressed as a Relative Potency (REP) of tested sample in relation to reference standard. The method variability was determined at the level of 7% coefficient variation (CV) of intermediate precision within the qualification exercise. Additionally accuracy, linearity and specificity were tested.

α4β7 integrin [4] = target: T1, α4β7 integrin; test: MadCAM-1 competitive ELISA; coated α4β7 integrin, Fc-tagged MadCAM-1 as competitor; lowest of 24 batches
Procedure: as §1

HIS-tagged α4β1 integrin [5] = target: T2, HIS-tagged α4β1 integrin; test: VCAM-1 competitive ELISA; coated VCAM-1 as competitor, HIS-tagged α4β1 integrin in solution; 26 batches, n=3
Procedure: as §2

HIS-tagged α4β1 integrin [6] = target: T2, HIS-tagged α4β1 integrin; test: VCAM-1 competitive ELISA; coated VCAM-1 as competitor, HIS-tagged α4β1 integrin in solution; highest of 26 batches
Procedure: as §2

B1: Natalizumab reference product (Referent batches) (antibody, human IgG4, kappa, V domains shown)
VH: QVQLVQSGAEVKKPGASVKVSCKASGFNIKDTYIHWVRQAPGQRLEWMGRIDPANGYTKYDPKFQGRVTITADTSASTAYMELSSLRSEDTAVYYCAREGYYGNYGVYAMDYWGQGTLVTVSS
VL: DIQMTQSPSSLSASVGDRVTITCKTSQDINKYMAWYQQTPGKAPRLLIHYTSALQPGIPSRFSGSGSGRDYTFTISSLQPEDIATYYCLQYDNLWTFGQGTKVEIKR
Relative Potency (REP), max (α4β7 integrin [1]): 1.17 REP (relative to reference standard) | Relative Potency (REP), average (α4β7 integrin [2]): 0.995 REP (relative to reference standard) | Relative Potency (REP), min (HIS-tagged α4β1 integrin [3]): 0.916 REP (relative to reference standard) | Relative Potency (REP), min (α4β7 integrin [4]): 0.83 REP (relative to reference standard) | Relative Potency (REP), average (HIS-tagged α4β1 integrin [5]): 1.04 REP (relative to reference standard) | Relative Potency (REP), max (HIS-tagged α4β1 integrin [6]): 1.2 REP (relative to reference standard)
